B1: THAP1; numbered along this chain (parent)
chain: MVQSCSAYGCKNRYDKDKPVSFHKFPLTRPSLCKEWEAAVRRKNFKPTKYSSICSEHFTPDCFKRECNNKLLKENAVPTIFLCTEPHDKKEDLLEPQEQLPPPPLPPPVSQVDAAIGLLMPPLQTPVNLSVFCDHNYTVEDTMHQRKRIHQLEQQVEKLRKKLKTAQQRCRRQERQLEKLKEVVHFQKEKDDVSERGYVILPNDYFEIVEVPA

Variants of: B1
Assay: THAP1 transcriptional activity (GFP+/GFP- enrichment relative to wild-type constructs) (ratio to WT); higher = more THAP1 activity (PSMB5 reporter activation)
Conditions: with PSMB5 promoter-GFP reporter
How it was run: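 In duplicate, a lentivirus-delivered library with every residue from 2–213 of human THAP1 changed to all 20 amino acids was introduced at MOI ~0.3 into THAP1-knockout HEK-293T cells carrying endogenous PSMB5 tagged by mClover3 knock-in. Five days on, BFP+ cells were binned as GFP-dim or GFP-bright, and Illumina sequencing of genomic DNA amplicons counted each variant. Activity is the bright/dim read fold change, averaged over replicates and scaled to the mean of wild-type synonymous constructs.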

THAP1 transcriptional activity of substitutions, site by site:
P122: A 0.914; W 0.159; C 0.319; G 0.667; D 0.515; F 0.156; L 0.692; T 0.614; Y 0.254; R 0.328; V 0.214; I 0.39; K 0.728; Q 0.769; H 0.355; S 0.627; E 0.885; M 0.226
P121: N 0.457; G 0.454; D 0.48; S 0.441; R 0.501; C 0.259; E 0.735; F 0.115; W 0.0793; Q 0.491; Y 0.185; A 1.18; K 0.594; I 0.299; M 0.288; V 0.207; L 0.104
A114: L 0.635; S 0.612; T 1.27; P 1.29; G 0.748; Q 0.985; Y 0.291; K 0.546; N 1.35; V 0.296; D 1.33; E 0.768; I 0.238; M 0.387; C 0.678; H 0.483; W 0.317; F 0.602
G117: M 0.138; N 0.857; Q 0.581; F 0.352; P 1.14; C 0.534; Y 0.262; K 0.256; I 0.169; T 0.51; E 1.6; S 0.877; H 0.396; W 0.261; D 0.481; L 0.288; R 0.476; A 0.485
L123: W 0.642; P 1.05; R 1.45; Q 0.814; F 0.608; E 1.45; I 0.913; M 0.859; K 0.809; G 0.957; C 0.584; V 1.01; N 1.54; A 0.859; H 1.24; S 0.637; T 1.44; Y 0.693; D 1.45
V109: T 1.18; M 1.17; I 0.777; L 2.8; D 2.07; Q 1.24; F 0.884; G 1.96; E 3.82; R 0.788; S 1.31; N 2.02; C 1.49; A 1.33; W 0.467; Y 0.304; K 2.39
P108: M 0.588; D 1.66; L 1.93; C 0.724; V 2.03; G 1.24; H 1.01; S 1.65; I 1.18; A 1.3; W 0.601; T 1.43; F 0.519; N 2.3; Y 0.559; Q 1.31; E 1.26; K 0.9
L119: E 1.03; I 1.11; A 0.912; R 0.731; D 0.609; P 1.08; F 0.425; V 0.5; S 0.92; C 0.404; G 0.614; H 0.929; N 1.09; W 0.533; Q 0.718; M 0.525; K 1.25; Y 0.443
P107: R 0.608; S 1.14; Y 1.42; W 0.215; T 1.04; Q 1.2
I116: T 1.04; E 0.841; L 0.739; V 1.05; P 0.93; R 0.984; M 0.731; K 0.886; F 0.452; N 0.988; A 1; W 0.472; H 0.735; D 1.33; Y 0.918; C 0.903; G 1.82; Q 0.902; S 1.3
V112: A 0.615; H 0.743; G 1.11; R 0.921; Q 1.03; C 1.08; L 0.629; N 1.3; K 1.74; D 0.804; T 1.06; M 1.24; W 0.234; S 1.12; F 0.388; I 0.587; P 1.04; E 1.25
Q124: W 0.257; D 0.637; H 0.399; P 0.631; E 0.458; C 0.587; V 0.643; S 0.576; L 0.212; R 0.787; I 0.516; M 0.487; N 0.579; Y 0.592; F 0.463; T 0.351; K 0.879; A 0.569; G 0.787
S110: K 1.31; P 0.916; I 0.783; H 0.672; F 0.715; Q 0.788; C 0.567; R 0.973; V 0.459; M 0.337; D 0.782; Y 0.394; W 0.41; E 0.424; A 0.787; L 0.361; G 1.15; T 0.793
L118: P 1.1; F 1.09; Y 0.871; S 0.509; N 2.21; K 0.884; I 1.1; A 0.723; Q 1.04; D 0.991; R 1.19; C 0.498; V 0.976; G 0.954; H 1.01; W 0.319; E 0.947
A115: Q 0.738; G 0.474; D 1.12; K 0.658; P 0.658; I 0.237; L 0.295; R 0.409; C 0.428; W 0.164; E 1.47; V 0.454; Y 0.256; T 0.594; F 0.278; S 0.742; H 0.76; M 0.233; N 0.982
T125: N 0.786; R 0.432; F 0.212; K 1.4; A 1.2; M 0.329; L 0.291; Q 0.85; G 0.666; S 0.95; H 0.515; I 0.437; D 0.713; C 0.57; Y 0.322; E 1.1; W 0.351; V 0.325; P 0.865
D113: G 0.816; V 0.277; T 0.375; A 0.667; N 0.681; L 0.336; E 0.669; R 0.285; F 0.135; P 0.638; Y 0.229; W 0.173; I 0.206; S 0.697; K 0.918; H 0.473; M 0.24; C 0.573; Q 0.7
Q111: H 0.97; I 0.508; G 0.565; F 0.585; T 1.13; A 0.608; E 0.762; P 0.993; M 0.329; C 0.52; K 1.01; D 1.06; N 0.81; R 0.543; V 0.457; L 0.357; W 0.132; Y 0.232
M120: F 0.651; Q 1.57; A 0.822; T 1.85; P 1.25; E 1.25; R 0.835; H 0.611; Y 0.474; I 1.14; S 0.984; L 0.534; N 1.38; W 0.324; G 0.81; C 0.909; K 1.37; V 1.24; D 1.08

Reference: the supplement of paper PMC11811203
